In this test the target is Mu-HSSKLQ-AMC (morpholinocarbonyl-His-Ser-Ser-Lys-Leu-Gln-7-amido-4-methylcoumarin), fluorogenic PSA substrate. In words: Spectrofluorimetric pre-steady-state (burst) and steady-state kinetics of AMC release (excitation 380 nm, emission 460 nm). The note with it: 37.0 C, 100 mM NaCl, 10 mM CaCl2, 25 mM bis-tris-HCl and 25 mM tris-HCl between pH 6.5 and 9.0 (the buffer used at each pH is not stated).

Under “pH 6.5-9.0”, “Prostate-specific antigen (PSA, kallikrein-related peptidase 3, KLK3)” yielded a pKES1, group 1 of PSA (unassigned; tentatively Lys95E of the kallikrein loop) of 8.59 pH units. This substance also yielded a pKES2, group 2 of PSA (unassigned; tentatively a histidine, possibly His57 or His172) (pH 6.5-9.0) of 5.11 pH units. The same substance registered a pKU1, group 1 of PSA (unassigned; tentatively Lys95E of the kallikrein loop) (pH 6.5-9.0) of 8.02 pH units. This substance also registered a pKU2, group 2 of PSA (unassigned; tentatively a histidine, possibly His57 or His172) (pH 6.5-9.0) of 7.61 pH units. Further, the Ks (pH 6.5) is 490 µM; the Ks (pH 7.0) came to 120 µM; the Ks (pH 7.5) came out at 62 µM; the Ks (pH 8.0) is 42 µM; the Ks (pH 8.5) worked out at 55 µM; the Ks (pH 9.0) turned out to be 75 µM.

The values are drawn from PMC4113483.
